The results in this text go back to patent publication US20120058906A1 (published 2012).

In assay [1] the target is T1, rHuman Notch-1/Fc Chimera, CF (R&D Systems Cat#3647-TK) (human, UniProt P46531 19-526).
T1 construct: Purchased Fc chimera; not shown: Fc portion of the purchased chimera
As to the kind of experiment: MSD ECL multi-spot plate, antigen immobilized; Fab 1000 nM; blank spot 630.

Assay [2] has as its target T2, rHuman CD44/Fc Chimera, CF (R&D Systems Cat#3660-CD) (human, UniProt P16070 21-220).
T2 construct: Bought Fc chimera; Fc part of the bought chimera not given
Description: ECL (MSD Multi-Spot) binding assay, antigen spotted on plate; Fab 17 nM; blank spot 143.

Assay [3] addresses T3, rHuman EGF R/Fc Chimera, CF (R&D Systems Cat#344-ER) (human, UniProt P00533 25-645).
T3 construct: Bought Fc chimera; also called epidermal growth factor receptor; Fc part of the bought chimera not given
The description is as above.

Assay [4] deals with T4, rHuman ErbB2/Fc Chimera, CF (R&D Systems Cat#1129-ER) (human, UniProt P04626 23-652).
T4 construct: Bought Fc chimera; also called HER2/neu; human epidermal growth factor 2 receptor; Fc part of the bought chimera not given
The description is as above.

The target in assay [5] is T5, rHuman Erythropoietin R/Fc Chimera, CF (R&D Systems Cat#963-ER) (human, UniProt P19235 25-250).
T5 construct: Bought Fc chimera; also called EPO R/Fc; Epo R; Fc part of the bought chimera not given
T5 sequence: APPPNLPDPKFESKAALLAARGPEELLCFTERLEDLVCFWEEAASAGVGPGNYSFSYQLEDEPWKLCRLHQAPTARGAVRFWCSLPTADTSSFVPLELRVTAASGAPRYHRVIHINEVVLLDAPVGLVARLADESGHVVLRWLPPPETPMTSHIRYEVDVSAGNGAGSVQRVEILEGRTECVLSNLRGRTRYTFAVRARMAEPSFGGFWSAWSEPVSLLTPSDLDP
The description is as above.

For assay [6], the target named is T6, rHuman Notch-1/Fc Chimera, CF (R&D Systems Cat#3647-TK) (human, UniProt P46531 19-526).
T6 construct: Bought Fc chimera; Fc part of the bought chimera not given
The description is as above.

In assay [7] the target is T7, Recombinant Human DLL4 (R&D Systems Cat#1506-D4/CF) (human, UniProt Q9NR61 27-524).
T7 construct: Bought recombinant protein; also called delta-like protein 4; rHuman DLL4
The description is as above.

Assay [8] concerns the target T8, rHuman IGF-1 sR (IGF-1 sR), CF (R&D Systems Cat#391-GR) (human, UniProt P08069 31-932).
T8 construct: Bought soluble receptor; also called insulin-like growth factor-1 soluble receptor; IGF-R1
Described as above.

Assay [9] deals with T1, rHuman Notch-1/Fc Chimera, CF (R&D …). As to the kind of experiment: MSD ECL multi-spot plate, antigen immobilized; Fab 1000 nM; blank spot 427.
Assay [10] addresses T9, rHuman ErbB2/Fc Chimera, CF (R&D Systems Cat#1129-ER) (human, UniProt P04626 23-652).
T9 construct: Purchased Fc chimera; also called HER2/neu; not shown: Fc portion of the purchased chimera
The description is as above.

In assay [11] the target is T10, rHuman EGF R/Fc Chimera, CF (R&D Systems Cat#344-ER) (human, UniProt P00533 25-645).
T10 construct: Purchased Fc chimera; not shown: Fc portion of the purchased chimera
The description is as above.

The target in assay [12] is T11, rHuman HGF R/c-MET/Fc Chimera, CF (R&D Systems Cat#358-MT/CF) (human, UniProt P08581 25-932).
T11 construct: Purchased Fc chimera; also called HGF R/Fc; not shown: Fc portion of the purchased chimera
The description is as above.

For assay [13], the target named is T12, rHuman CD44/Fc Chimera, CF (R&D Systems Cat#3660-CD) (human, UniProt P16070 21-220).
T12 construct: Purchased Fc chimera; not shown: Fc portion of the purchased chimera
Described as above.

Assay [14] deals with T13, rHuman IGF-1 sR (IGF-1 sR), CF (R&D Systems Cat#391-GR) (human, UniProt P08069 31-932).
T13 construct: Purchased soluble receptor; also called insulin-like growth factor-1 soluble receptor; IGF-R1
The assay is described as above.

For assay [15], the target named is T14, rHuman P-Cadherin/Fc Chimera, CF (R&D Systems Cat#861-PC) (human, UniProt P22223 108-654).
T14 construct: Purchased Fc chimera; not shown: Fc portion of the purchased chimera
The assay is described as above.

Assay [16] addresses T15, Recombinant Human DLL4 (R&D Systems Cat#1506-D4/CF) (human, UniProt Q9NR61 27-524).
T15 construct: Purchased recombinant protein; also called delta-like protein 4
The assay is described as above.

In assay [17] the target is T16, rHuman Erythropoietin R/Fc Chimera, CF (R&D Systems Cat#963-ER) (human, UniProt P19235 25-250).
T16 construct: Purchased Fc chimera; also called EPO R/Fc; Epo R; not shown: Fc portion of the purchased chimera
T16 sequence: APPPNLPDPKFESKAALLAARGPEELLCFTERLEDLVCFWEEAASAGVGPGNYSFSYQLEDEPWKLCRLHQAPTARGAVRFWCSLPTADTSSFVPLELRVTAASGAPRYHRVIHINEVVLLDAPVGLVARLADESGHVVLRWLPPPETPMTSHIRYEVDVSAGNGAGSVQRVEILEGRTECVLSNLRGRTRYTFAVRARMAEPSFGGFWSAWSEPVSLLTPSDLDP
The description is as above.

In assay [18] the target is T17, rHuman IGF-1 sR (IGF-1 sR), CF (R&D Systems Cat#391-GR) (human, UniProt P08069 31-932).
T17 construct: Bought soluble receptor; also called insulin-like growth factor-1 soluble receptor; IGF-R1
Description: ECL (MSD multi-spot), antigen spotted on plate; Fab 1410 nM; blank spot 709.
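Also: blank spot per well as comparator with Hit at signal to blank ratio of 4 or more.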

B1: Fab VH5-51_IGHD5-18*01>3_IGHJ4*01_G100K & V3-4_IGLJ1*01 (Fab, V domains shown)
VH: EVQLVQSGAEVKKPGESLKISCKGSGYSFTSYWIGWVRQMPGKGLEWMGIIYPGDSDTRYSPSFQGQVTISADKSISTAYLQWSSLKASDTAMYYCARRKYSYGYDYFDYWGQGTLVTVSS
VL: QTVVTQEPSFSVSPGGTVTLTCGLSSGSVSTSYYPSWYQQTPGQAPRTLIYSTNTRSSGVPDRFSGSILGNKAALTITGAQADDESDYYCVLYMGSGISYVFGTGTKVTVL
notes: It was expressed as a Fab: CH1 with tags from Plasmid A and lambda CL from Plasmid E; also called Fab No. 22
As to B1, the ECL signal in assay [1] was 1180 ECL signal.

B2: Fab VH5-51_IGHD5-18*01>3_IGHJ4*01 & V3-4_IGLJ1*01 (Fab, V domains shown)
VH: EVQLVQSGAEVKKPGESLKISCKGSGYSFTSYWIGWVRQMPGKGLEWMGIIYPGDSDTRYSPSFQGQVTISADKSISTAYLQWSSLKASDTAMYYCARRGYSYGYDYFDYWGQGTLVTVSS
VL: QTVVTQEPSFSVSPGGTVTLTCGLSSGSVSTSYYPSWYQQTPGQAPRTLIYSTNTRSSGVPDRFSGSILGNKAALTITGAQADDESDYYCVLYMGSGISYVFGTGTKVTVL
notes: Tested as a Fab made in E. coli; also called IGHV5-51*03
Turning to B2, the ECL signal in [2] amounted to 518; in assay [3] it was 805; in assay [4] it was 1030; in assay [5], 620; in assay [6] it was 558; in assay [7], 7160. In addition, in [8], the ECL signal was found to be 872.

B3: Fab VH5-51_IGHD5-18*01>3_IGHJ4*01_G100R & V3-4_IGLJ1*01 (Fab, V domains shown)
VH: EVQLVQSGAEVKKPGESLKISCKGSGYSFTSYWIGWVRQMPGKGLEWMGIIYPGDSDTRYSPSFQGQVTISADKSISTAYLQWSSLKASDTAMYYCARRRYSYGYDYFDYWGQGTLVTVSS
VL: QTVVTQEPSFSVSPGGTVTLTCGLSSGSVSTSYYPSWYQQTPGQAPRTLIYSTNTRSSGVPDRFSGSILGNKAALTITGAQADDESDYYCVLYMGSGISYVFGTGTKVTVL
notes: It was expressed as a Fab: CH1 with tags from Plasmid A and lambda CL from Plasmid E; also called Fab No. 23
As to B3, the ECL signal was 761 ECL signal in assay [9]; 945 ECL signal in assay [10]; 721 ECL signal in assay [11]; 778 ECL signal in [12]; 559 ECL signal in [13]; 733 ECL signal in [14]. Moreover, the values for the ECL signal in assay [15], in assay [16] and in assay [17] were 762 ECL signal, 23400 ECL signal and 666 ECL signal, respectively.

B4: Fab VH1-46_IGHD3-10*01_IGHJ4*01 & B3_IGKJ1*01 (Fab, V domains shown)
VH: QVQLVQSGAEVKKPGASVKVSCKASGYTFTSYYMHWVRQAPGQGLEWMGIINPSGGSTSYAQKFQGRVTMTRDTSTSTVYMELSSLRSEDTAVYYCAREYYYGSGSYYNDYFDYWGQGTLVTVSS
VL: not shown
notes: also called IGHV1-46*01
Consider B4, for which the ECL signal in assay [18] was found to be 426.
